Data taken from US20110201549A1 (UNIVERSITY OF GEORGIA RESEARCH FOUNDATION, published 2011).

Biological target: T1, chymotrypsin-treated Cry3Bb (Bacillus thuringiensis, UniProt Q06117 162-652)
T1 construct: Insecticidal Cry toxin; It was coated on microtiter plates after chymotrypsin treatment; also called Cry3Bb protein; Cry3Bb toxin
T1 sequence: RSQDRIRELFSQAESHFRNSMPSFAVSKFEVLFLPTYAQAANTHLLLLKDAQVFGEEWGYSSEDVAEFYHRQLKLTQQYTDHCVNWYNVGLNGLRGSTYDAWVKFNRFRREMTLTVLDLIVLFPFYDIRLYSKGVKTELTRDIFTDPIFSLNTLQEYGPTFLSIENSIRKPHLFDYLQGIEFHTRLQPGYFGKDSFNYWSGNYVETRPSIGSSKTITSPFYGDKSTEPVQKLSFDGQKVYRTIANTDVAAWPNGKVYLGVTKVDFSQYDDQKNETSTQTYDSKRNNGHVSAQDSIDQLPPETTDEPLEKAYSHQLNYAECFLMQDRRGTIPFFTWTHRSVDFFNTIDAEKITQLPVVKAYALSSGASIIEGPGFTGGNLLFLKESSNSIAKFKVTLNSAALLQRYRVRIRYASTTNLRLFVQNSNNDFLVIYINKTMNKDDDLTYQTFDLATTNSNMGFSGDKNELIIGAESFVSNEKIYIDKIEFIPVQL
Assay: ELISA-based microplate binding assay: plates coated with chymotrypsin-treated Cry3Bb, increasing concentrations of biotinylated TmCad1-TBR, streptavidin-HRP detection, one site saturation fit
Method: FIG. 7 illustrates TmCad1-TBR binding to Cry3Bb (Panel A) and enhancement of Cry3Bb toxicity to lesser mealworm by TmCad1-TBR peptides (Panel B). In Panel A, TmCad1-TBR binding to Cry3Bb protein was determined using an ELISA-based binding assay. Microtiter plates were coated with chymotrypsin-treated Cry3Bb and then incubated with increasing various concentrations of biotinylated TmCad1-TBR peptide. Bound biotinylated TmCad1-TBR peptide was detected with a Streptavidin-HRP conjugate and substrate. Non-specific binding was determined in the presence of 1000-fold excess unlabeled TmCad1-TBR peptide. Each data point is the mean of two experiments done in duplicate. Error bars depict standard deviation. Binding affinities (Kd) were calculated based on specifically bound biotinylated TmCad1-TBR peptide using a one site saturation binding equation. […] Cry3Bb inclusions without or with and increased amount of TmCad1-TBR inclusions were applied to semi-solid diet. One 1st instar darkling beetle larva was applied per well and the bioassays was scored on day 3. No toxicity was observed when treated with TmCad1-TBR peptide alone.
We tested the possibility that TmCad1-TBR binds a coleopteran-active Cry toxins using a microplate binding assay described previously (Zhang et al. 2008). […] TmCad1-TBR also enhances Cry3Bb toxicity to A. diaperinus larvae (FIG. 7A).

B1: TmCad1-TBR cadherin fragment from the Tenebrio molitor cadherin (T. molitor cadherin Toxin Binding Region) (receptor)
chain: MKQWYQRRVAITAGKDTTSKDKLQYNIDNITPSNLDLDIKSAFTMNTQSGDITINFEVKDSMEGYFTLDLSVQDEEPENHKADATLKIYIVTSKNTVVFRFENDQETVSDKAGDIKSVLDEEFQYETKVEAPTGNTTDGTPLTRSPVFFLNLNTNEPVDATEILKKVTNVDVFQRLKNNFSKVGLVLLSFDSSSETNENLEAHHHHHH
modifications: biotinylated (sites not given)
notes: also called CR12-MPED of TmCad1
- Kd: 13 nM
